Assay results: paper PMC2172197
Like-named read-outs stand apart in the source and are kept apart here.

What was measured:
[1] = biological target: pFd-protAHis (preferredoxin fused to Staphylococcal protein A, COOH-terminal hexahistidine tag); assay: pull-down
[2] = biological target: pFd-protAHis (preferredoxin fused to Staphylococcal protein A, COOH-terminal hexahistidine tag); assay: pull-down; remark: listed apart in the source

[35S]atToc159 (in vitro-translated soluble atToc159) (from UniProt O81283 1-1503) (receptor)
percent reduction of binding against GTP [1]: 20% | percent reduction of binding against GTP [2]: 20%

[35S]atToc159-K868R (from UniProt O81283 1-1503) (receptor)
percent less binding than wild-type atToc159 [2]: 60%

[35S]atToc159G (in vitro-translated G domain of atToc159) (domain or fragment)
fold higher binding than to Fd-protAHis [2]: 3 fold
